Assay results: PMC7808939

How the values were obtained:
Fbxl8 [1] = biological target: Fbxl8 (UniProt Q8CIG9); experiment: anti-HA co-IP, blot for cyclin D3; conditions: reference: wild type Flag-cyclin D3; sites T283
Fbxl8 [2] = biological target: Fbxl8 (UniProt Q8CIG9); experiment: co-immunoprecipitation; conditions: reference: wild type cyclin D3; sites T283

Row | binding against the reference (Fbxl8 [1]) | binding against the reference (Fbxl8 [2]) | Substance
1 | weaker |  | cyclin D3 (from UniProt P30282) Flag-cyclin D3 T283A
2 |  | lost | cyclin D3 (from UniProt P30282) T283A
